According to the supplement of paper PMC10126150:
± gives the standard deviation of the averaged measurements.

Test system: ATP
Experiment: switch fluorescence ratio, 500 uM ATP over buffer (Cy3 cluster intensity, sum of 5 cycles each) (fold (ratio)); higher = stronger signal-on switching upon ATP binding; sequences stand for … in TCGTCGGCAGCGTCAGATGTGTATAAGAGACAGTTTTTTTTTTTTTTTTTTTTTTTTT…TC
Conditions: aptamer strand: ATP DNA aptamer (quencher-CACCTGGGGGAGTATTGCGGAGGAAGG + anchor), 100 nM annealed; ATP concentration: 500 uM
In short: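 Values give the fluorescence ratio for each switch-domain sequence, averaged from per-cluster ratios of summed target-cycle to summed buffer-cycle Cy3 intensity. The Cy3-labelled switching-strand clusters sat on a modified Illumina MiSeq flow-cell, were annealed to 100 nM quencher-labelled ATP aptamer, and were imaged in selection buffer, then after 15 min with 500 uM ATP at 22 °C. Five cycles ran with NaOH stripping and re-annealing between them, and clusters outside 100-1000 RFU were excluded.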
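Also: ATP exposure 15 min at 22 °C before imaging.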

AAGGGAGAAC
switch fluorescence ratio: 0.986 ± 0.0019

AAGGGAGCAC
switch fluorescence ratio: 1.02 ± 0.023

AAGGGATCGG
switch fluorescence ratio: 0.994 ± 0.024

AAGGGCATTG
switch fluorescence ratio: 0.998 ± 0.015

AAGGGCCCTA
switch fluorescence ratio: 0.9939 ± 0.0018

AAGGGCCGCG
switch fluorescence ratio: 1 ± 0.017

AAGGGCGCTG
switch fluorescence ratio: 1.01 ± 0.048

AAGGGCGGGC
switch fluorescence ratio: 1.07 ± 0.0085

AAGGGCTTAT
switch fluorescence ratio: 0.981 ± 0.019

AAGGGCTTGC
switch fluorescence ratio: 1.01 ± 0.041

AAGGGGACCC
switch fluorescence ratio: 1.04 ± 0.043

AAGGGGATT
switch fluorescence ratio: 1.01 ± 0.027

AAGGGGCTTG
switch fluorescence ratio: 0.986 ± 0.036

AAGGGGGACA
switch fluorescence ratio: 0.992 ± 0.032

AAGGGGGATT
switch fluorescence ratio: 1.01 ± 0.044

AAGGGGGCCA
switch fluorescence ratio: 0.982 ± 0.074

AAGGGGGGCT
switch fluorescence ratio: 0.996 ± 0.03

AAGGGGGGGA
switch fluorescence ratio: 1.01 ± 0.046

AAGGGGGTCC
switch fluorescence ratio: 1.03 ± 0.036

AAGGGGGTGG
switch fluorescence ratio: 1.02 ± 0.059

AAGGGGTATT
switch fluorescence ratio: 1.01 ± 0.027

AAGGGGTGCA
switch fluorescence ratio: 0.968 ± 0.058

AAGGGGTGTT
switch fluorescence ratio: 1.02 ± 0.02

AAGGGGTTAT
switch fluorescence ratio: 1.02 ± 0.05

AAGGGGTTGC
switch fluorescence ratio: 1.03 ± 0.022

AAGGGGTTGG
switch fluorescence ratio: 1.01 ± 0.019

AAGGGTAAAT
switch fluorescence ratio: 0.996 ± 0.033

AAGGGTAACA
switch fluorescence ratio: 0.991 ± 0.019

AAGGGTCTGG
switch fluorescence ratio: 0.986 ± 0.024

AAGGGTGCGT
switch fluorescence ratio: 1.01 ± 0.044

AAGGGTGGAG
switch fluorescence ratio: 0.996 ± 0.026

AAGGGTGGTA
switch fluorescence ratio: 0.981 ± 0.016

AAGGGTTCAT
switch fluorescence ratio: 1.031 ± 0.0099

AAGGGTTGCG
switch fluorescence ratio: 0.985 ± 0.024

AAGGTAACGG
switch fluorescence ratio: 0.972 ± 0.038

AAGGTAATCC
switch fluorescence ratio: 1.01 ± 0.039

AAGGTCGTAT
switch fluorescence ratio: 0.9922 ± 0.009

AAGGTCTTTG
switch fluorescence ratio: 1.01 ± 0.043

AAGGTGCCGG
switch fluorescence ratio: 1.0373 ± 0.00076

AAGGTGCCTG
switch fluorescence ratio: 1.02 ± 0.064

AAGGTGTCGG
switch fluorescence ratio: 0.9895 ± 0.0037

AAGGTGTGCG
switch fluorescence ratio: 1.02 ± 0.024

AAGGTGTTGG
switch fluorescence ratio: 1.04 ± 0.021

AAGGTGTTTT
switch fluorescence ratio: 1.08 ± 0.016

AAGGTTAATT
switch fluorescence ratio: 1 ± 0.022

AAGGTTACTC
switch fluorescence ratio: 1.01 ± 0.029

AAGGTTAGGT
switch fluorescence ratio: 1.03 ± 0.041

AAGGTTCTTT
switch fluorescence ratio: 0.988 ± 0.022

AAGGTTGATA
switch fluorescence ratio: 0.988 ± 0.032

AAGGTTGATG
switch fluorescence ratio: 0.982 ± 0.02

AAGGTTGCAA
switch fluorescence ratio: 1.01 ± 0.011

AAGGTTGCGC
switch fluorescence ratio: 0.986 ± 0.026

AAGGTTGGTC
switch fluorescence ratio: 1 ± 0.027

AAGGTTGTAA
switch fluorescence ratio: 0.985 ± 0.021

AAGGTTTAGT
switch fluorescence ratio: 1 ± 0.024

AAGGTTTCAA
switch fluorescence ratio: 0.985 ± 0.018

AAGGTTTGCG
switch fluorescence ratio: 1.01 ± 0.025

AAGGTTTGTT
switch fluorescence ratio: 0.996 ± 0.049

AAGTAAAAAT
switch fluorescence ratio: 1.05 ± 0.036

AAGTAAAGCT
switch fluorescence ratio: 1.11 ± 0.06

AAGTAATGGG
switch fluorescence ratio: 0.961 ± 0.041

AAGTACAGGC
switch fluorescence ratio: 1.27 ± 0.12

AAGTACCCGG
switch fluorescence ratio: 1.14 ± 0.026

AAGTACTAGC
switch fluorescence ratio: 1.212 ± 0.0086

AAGTAGGTAT
switch fluorescence ratio: 1.02 ± 0.011

AAGTAGTCTT
switch fluorescence ratio: 0.995 ± 0.014

AAGTATGGGA
switch fluorescence ratio: 1.02 ± 0.028

AAGTATTGGT
switch fluorescence ratio: 1.02 ± 0.041

AAGTCAATTC
switch fluorescence ratio: 1.36 ± 0.12

AAGTCACGGT
switch fluorescence ratio: 1.09 ± 0.02

AAGTCAGTGC
switch fluorescence ratio: 1.11 ± 0.013

AAGTCATGGA
switch fluorescence ratio: 1.02 ± 0.027

AAGTCATTTG
switch fluorescence ratio: 1.017 ± 0.0088

AAGTCGCATA
switch fluorescence ratio: 1.04 ± 0.017

AAGTCGCGGA
switch fluorescence ratio: 0.999 ± 0.033

AAGTCGGATG
switch fluorescence ratio: 1.04 ± 0.079

AAGTCGGGTG
switch fluorescence ratio: 1.08 ± 0.024

AAGTCTATAA
switch fluorescence ratio: 1.02 ± 0.046

AAGTCTGGGC
switch fluorescence ratio: 1.01 ± 0.036

AAGTCTGGGG
switch fluorescence ratio: 1.01 ± 0.027

AAGTGAAATT
switch fluorescence ratio: 1.02 ± 0.018

AAGTGAATAA
switch fluorescence ratio: 0.998 ± 0.017

AAGTGAGCAG
switch fluorescence ratio: 1.012 ± 0.0072

AAGTGATGCT
switch fluorescence ratio: 1.03 ± 0.087

AAGTGCAGGG
switch fluorescence ratio: 0.9896 ± 0.0057

AAGTGCGACC
switch fluorescence ratio: 1.03 ± 0.057

AAGTGGAGGG
switch fluorescence ratio: 0.985 ± 0.021

AAGTGGGGTT
switch fluorescence ratio: 1.02 ± 0.029

AAGTGGGTTA
switch fluorescence ratio: 1.02 ± 0.032

AAGTGGTTA
switch fluorescence ratio: 0.981 ± 0.026

AAGTGTCCCG
switch fluorescence ratio: 0.994 ± 0.032

AAGTGTCGTG
switch fluorescence ratio: 0.959 ± 0.024

AAGTGTTAG
switch fluorescence ratio: 0.966 ± 0.011

AAGTGTTGGC
switch fluorescence ratio: 1.014 ± 0.01

AAGTGTTTT
switch fluorescence ratio: 1.016 ± 0.005

AAGTTAAAA
switch fluorescence ratio: 1.04 ± 0.092

AAGTTAAAAG
switch fluorescence ratio: 0.975 ± 0.012

AAGTTAAGCC
switch fluorescence ratio: 1.01 ± 0.047

AAGTTAAGGG
switch fluorescence ratio: 0.995 ± 0.055

AAGTTACATT
switch fluorescence ratio: 1.05 ± 0.012

AAGTTATCAT
switch fluorescence ratio: 0.964 ± 0.019

AAGTTATGAC
switch fluorescence ratio: 1.03 ± 0.029

AAGTTATTAC
switch fluorescence ratio: 1 ± 0.032

AAGTTCCGGA
switch fluorescence ratio: 1.034 ± 0.0072

AAGTTCGATG
switch fluorescence ratio: 0.976 ± 0.025

AAGTTCGCCT
switch fluorescence ratio: 1.09 ± 0.13

AAGTTCGCTG
switch fluorescence ratio: 1.01 ± 0.065

AAGTTGACCG
switch fluorescence ratio: 1.04 ± 0.046

AAGTTGGTGT
switch fluorescence ratio: 1.02 ± 0.043

AAGTTGTATT
switch fluorescence ratio: 0.9974 ± 0.0019

AAGTTGTCTG
switch fluorescence ratio: 0.978 ± 0.056

AAGTTGTGA
switch fluorescence ratio: 0.973 ± 0.035

AAGTTGTTGT
switch fluorescence ratio: 1.007 ± 0.0025

AAGTTTGGAT
switch fluorescence ratio: 0.9919 ± 0.005

AAGTTTGGGC
switch fluorescence ratio: 0.98 ± 0.036

AAGTTTGTCT
switch fluorescence ratio: 1.004 ± 0.0053

AAGTTTGTTT
switch fluorescence ratio: 0.99 ± 0.028

AAGTTTTTTT
switch fluorescence ratio: 1 ± 0.025

AATAAAAGGG
switch fluorescence ratio: 1 ± 0.03

AATAAAATGG
switch fluorescence ratio: 0.998 ± 0.028

AATAAATGAT
switch fluorescence ratio: 1.01 ± 0.022

AATAAATTAA
switch fluorescence ratio: 0.977 ± 0.031

AATAAGACGG
switch fluorescence ratio: 1.011 ± 0.0061

AATAAGCACA
switch fluorescence ratio: 1.2 ± 0.028

AATAAGGGA
switch fluorescence ratio: 1.03 ± 0.1

AATAAGGGGG
switch fluorescence ratio: 1.01 ± 0.064

AATAAGTTAA
switch fluorescence ratio: 1 ± 0.026

AATAATAAGA
switch fluorescence ratio: 1 ± 0.017

AATAATAGCT
switch fluorescence ratio: 1.01 ± 0.041

AATAATCGAG
switch fluorescence ratio: 1.027 ± 0.0093

AATAATCGGC
switch fluorescence ratio: 0.994 ± 0.06

AATAATGCAA
switch fluorescence ratio: 1.07 ± 0.022

AATAATGCGT
switch fluorescence ratio: 0.994 ± 0.034

AATAATGCTT
switch fluorescence ratio: 0.978 ± 0.014

AATAATTCTG
switch fluorescence ratio: 0.984 ± 0.053

AATAATTTCG
switch fluorescence ratio: 1.007 ± 0.0082

AATACAGGCT
switch fluorescence ratio: 0.999 ± 0.024

AATACAGTGA
switch fluorescence ratio: 0.9986 ± 0.00012

AATACGGTAT
switch fluorescence ratio: 1.05 ± 0.05

AATACTACTA
switch fluorescence ratio: 1.05 ± 0.053

AATACTGATG
switch fluorescence ratio: 1.007 ± 0.0032

AATAGACGAA
switch fluorescence ratio: 1.01 ± 0.043

AATAGAGGGG
switch fluorescence ratio: 0.9926 ± 0.0071

AATAGCTACT
switch fluorescence ratio: 1.076 ± 0.01

AATAGGAAGT
switch fluorescence ratio: 1.011 ± 0.007

AATAGGGCCT
switch fluorescence ratio: 1.02 ± 0.023

AATAGGGGCT
switch fluorescence ratio: 1.02 ± 0.054

AATAGGGGTG
switch fluorescence ratio: 1.01 ± 0.043

AATAGTGGCA
switch fluorescence ratio: 1.02 ± 0.044

AATAGTGGGC
switch fluorescence ratio: 1.01 ± 0.043

AATAGTGGGT
switch fluorescence ratio: 1 ± 0.013

AATAGTTTAT
switch fluorescence ratio: 0.986 ± 0.022

AATATAATGT
switch fluorescence ratio: 1.03 ± 0.021

AATATCTCAC
switch fluorescence ratio: 1.022 ± 0.0087

AATATGAGAT
switch fluorescence ratio: 0.9799 ± 0.0073

AATATGAGTA
switch fluorescence ratio: 0.993 ± 0.038

AATATGGGTT
switch fluorescence ratio: 0.9802 ± 0.0091

AATATGTCGG
switch fluorescence ratio: 1 ± 0.021

AATATTATTA
switch fluorescence ratio: 1.019 ± 0.0041

AATATTTATT
switch fluorescence ratio: 1.02 ± 0.0091

AATATTTGGC
switch fluorescence ratio: 1 ± 0.059

AATATTTTTC
switch fluorescence ratio: 1.01 ± 0.015

AATCAAACAT
switch fluorescence ratio: 1.03 ± 0.018

AATCAATCTA
switch fluorescence ratio: 1.01 ± 0.071

AATCAATTAC
switch fluorescence ratio: 1.123 ± 0.011

AATCAGCATT
switch fluorescence ratio: 1.08 ± 0.076

AATCAGGGTA
switch fluorescence ratio: 1.01 ± 0.04

AATCAGGGTG
switch fluorescence ratio: 1.16 ± 0.01

AATCAGTGTA
switch fluorescence ratio: 1 ± 0.051

AATCAGTTTG
switch fluorescence ratio: 1.022 ± 0.0094

AATCCAAAAG
switch fluorescence ratio: 1.026 ± 0.0043

AATCCCTTTT
switch fluorescence ratio: 1 ± 0.031

AATCCGCTCT
switch fluorescence ratio: 1.2 ± 0.11

AATCCTGCGT
switch fluorescence ratio: 1.16 ± 0.21

AATCGAATAT
switch fluorescence ratio: 1 ± 0.015

AATCGATTTG
switch fluorescence ratio: 0.989 ± 0.032

AATCGCGGGC
switch fluorescence ratio: 1.09 ± 0.024

AATCGGATTG
switch fluorescence ratio: 1 ± 0.025

AATCGGGAGT
switch fluorescence ratio: 1.013 ± 0.0094

AATCGGGCGC
switch fluorescence ratio: 1.01 ± 0.048

AATCGGGTGC
switch fluorescence ratio: 1.05 ± 0.054

AATCGGTAAT
switch fluorescence ratio: 1.027 ± 0.0081

AATCGGTGGG
switch fluorescence ratio: 0.997 ± 0.03

AATCGTATAG
switch fluorescence ratio: 0.9817 ± 0.0042

AATCGTTAGG
switch fluorescence ratio: 0.969 ± 0.022

AATCTCCGAG
switch fluorescence ratio: 1.09 ± 0.031

AATCTGGGTG
switch fluorescence ratio: 1.11 ± 0.034

AATCTTGATG
switch fluorescence ratio: 0.981 ± 0.03

AATCTTGTGT
switch fluorescence ratio: 0.985 ± 0.027

AATGAAAATC
switch fluorescence ratio: 1.08 ± 0.15

AATGAAAGAT
switch fluorescence ratio: 0.998 ± 0.039

AATGACAGGG
switch fluorescence ratio: 0.988 ± 0.02

AATGACGGTA
switch fluorescence ratio: 1.0565 ± 0.00075

AATGACGTGT
switch fluorescence ratio: 1 ± 0.052

AATGAGATCG
switch fluorescence ratio: 1.01 ± 0.016

AATGAGGGAA
switch fluorescence ratio: 0.9986 ± 0.0011

AATGAGTGGA
switch fluorescence ratio: 1.008 ± 0.0063

AATGAGTTTT
switch fluorescence ratio: 0.998 ± 0.027

AATGCAGGTA
switch fluorescence ratio: 1.03 ± 0.027

AATGCATCTG
switch fluorescence ratio: 0.973 ± 0.013
